Test results: PMC4918325, “Mto2 multisite phosphorylation inactivates non-spindle microtubule nucleation complexes during mitosis” (Nature Communications, 2015)

Target: T1, Mto1-SZZ (protein A-tagged Mto1) (Schizosaccharomyces pombe, UniProt O94488 1-1115)
T1 construct: Mto1, Schizosaccharomyces pombe; Bait of all IgG-bead pulldowns; also called SZZ-tagged Mto1; source: S. pombe, gene tagged by PCR-based methods, in cell extract
T1 sequence (looked up): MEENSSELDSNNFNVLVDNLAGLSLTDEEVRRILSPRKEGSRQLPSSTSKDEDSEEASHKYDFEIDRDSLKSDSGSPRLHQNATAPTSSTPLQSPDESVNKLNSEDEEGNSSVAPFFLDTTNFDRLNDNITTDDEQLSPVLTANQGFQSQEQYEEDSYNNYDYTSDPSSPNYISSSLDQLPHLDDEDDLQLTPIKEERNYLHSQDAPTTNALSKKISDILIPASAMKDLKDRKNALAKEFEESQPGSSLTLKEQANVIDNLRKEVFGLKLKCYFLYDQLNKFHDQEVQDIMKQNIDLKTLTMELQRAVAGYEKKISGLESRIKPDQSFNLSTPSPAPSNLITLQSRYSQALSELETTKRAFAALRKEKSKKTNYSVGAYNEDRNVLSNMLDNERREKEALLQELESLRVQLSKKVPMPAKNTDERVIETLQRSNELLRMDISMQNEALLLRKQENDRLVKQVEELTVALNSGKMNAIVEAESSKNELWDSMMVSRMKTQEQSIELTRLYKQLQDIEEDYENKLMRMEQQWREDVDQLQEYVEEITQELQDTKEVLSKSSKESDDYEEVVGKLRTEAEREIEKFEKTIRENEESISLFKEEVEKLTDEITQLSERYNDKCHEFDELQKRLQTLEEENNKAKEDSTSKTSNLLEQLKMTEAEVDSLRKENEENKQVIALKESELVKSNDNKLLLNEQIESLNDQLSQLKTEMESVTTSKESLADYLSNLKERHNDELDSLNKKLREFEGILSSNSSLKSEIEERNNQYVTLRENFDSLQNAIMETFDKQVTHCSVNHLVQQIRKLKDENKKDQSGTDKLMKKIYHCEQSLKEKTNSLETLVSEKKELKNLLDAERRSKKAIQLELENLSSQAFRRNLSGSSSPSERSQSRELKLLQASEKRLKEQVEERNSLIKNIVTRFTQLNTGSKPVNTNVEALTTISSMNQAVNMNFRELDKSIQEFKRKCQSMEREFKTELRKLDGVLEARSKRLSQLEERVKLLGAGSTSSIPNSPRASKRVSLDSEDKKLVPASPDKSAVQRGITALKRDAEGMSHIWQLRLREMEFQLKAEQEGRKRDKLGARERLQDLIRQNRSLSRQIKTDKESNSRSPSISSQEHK
Assay: pull-down; IgG-coupled Dynabeads pull Mto1-SZZ from extracts of interphase (asynchronous) S. pombe cells (mto2+, mto2[6A], mto2[13A], mto2[17A], mto2[24A]); 90 min at 4 °C; lysis buffer 25 mM sodium phosphate pH 7.5, 100 mM KCl, 0.5 mM EDTA, 0.2% Triton X-100 with protease and phosphatase inhibitors; western blot
Settings: partners not purified

fold change of γ-tubulin copurifying with Mto1-SZZ in mto2[6A] cells relative to wild-type cells: ~1.5 fold
fold change of γ-tubulin copurifying with Mto1-SZZ in mto2[13A] cells relative to wild-type cells: ~1.5 fold
fold change of γ-tubulin copurifying with Mto1-SZZ in mto2[17A] cells relative to wild-type cells: ~3 fold
B1: Gtb1 (S. pombe γ-tubulin) (natural protein, UniProt P25295 1-446, looked up)
chain: MGREIITLQAGQCGNQIGSQFWQQLCLEHGIGPDGTLESFATEGVDRKDVFFYQSDDTRYIPRAILIDLEPRVVNNILSDTYGSLYNPENILITKNGGGAGNNWANGYSHAERIFEDIMDMIDREADGSDSLEGFSLLHSIAGGTGSGLGSFLLERLNDRYPKKIIQTYSVFPNSQSVSDVVVQPYNSLLALKRLTLNADSVVVLDNAALAHIAADRLHTQNPTFHQQNQLVSTVMSASTTTLRYPGYMNNDLVSIIASLIPSPRCHFLLTSYTPFTNQQVEEAKAIRKTTVLDVMRRLLLPKNQMVSVNPSKKSCFISILDIIQGEADPADVHKSLLRIRERRYASFIPWGPASIQVALSKKSPYIKTNHRVSGLMLANHTSIASLFKRTLDQYDRLRKRNAFLEQYKKEAIFEDDLNEFDSSRDVVADLINEYEACEDPNYLSL
notes: γ-tubulin Gtb1, Schizosaccharomyces pombe; Detected by anti-γ-tubulin blot (GTU-88); also called read-out of the γ-tubulin complex (γ-TuC); source: endogenous, S. pombe cell extract
